Results published in US7799901B2, “Modulators of the function of FAS receptors and other proteins” (Yeda Research and Development Co. Ltd., priority 1995, dated 2010).

Target: T1, mouse Fas-IC (Mus musculus, UniProt P25446)
T1 construct: four constructs of the mouse Fas-IC; expressed in transfected cells; host or cells: SFY526 yeast
T1 sequence (P25446 187-327 limits assumed): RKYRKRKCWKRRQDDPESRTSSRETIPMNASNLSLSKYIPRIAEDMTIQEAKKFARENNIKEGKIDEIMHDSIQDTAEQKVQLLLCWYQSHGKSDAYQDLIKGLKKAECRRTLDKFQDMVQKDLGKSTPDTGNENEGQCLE
Assay: Two-hybrid test of MORT-1 binding (FIG. 1), mouse Fas-IC
Details: transfected SFY526 yeasts
Description: To isolate proteins interacting with the intracellular domain of the FAS-R, the yeast two-hybrid system was used (Fields and Song, 1989). […] In this system, the genes for the candidate interacting proteins are cloned into separate expression vectors. In one expression vector, the sequence of the one candidate protein is cloned in phase with the sequence of the GAL4 DNA-binding domain to generate a hybrid protein with the GAL4 DNA-binding-domain, and in the other vector, the sequence of the second candidate protein is cloned in phase with the sequence of the GAL4 activation domain to generate a hybrid protein with the GAL4-activation domain. The two hybrid vectors are then co-transformed into a yeast host strain having a lacZ or HIS3 reporter gene under the control of upstream GAL4 binding sites. Only those transformed host cells (cotransformants) in which the two hybrid proteins are expressed and are capable of interacting with each other, will be capable of expressing the reporter gene. In the case of the lacZ reporter gene, host cells expressing this gene will become blue in color when X-gal is added to the cultures. […]
In FIG. 1, there is depicted the interaction of the proteins encoded by the Gal4 DNA binding domain and activation-domain constructs (pGBT9 and pGAD-GH) within transfected SFY526 yeasts as assessed by β-galactosidase expression filter assay. […]

B1: MORT-1: Mediator of Receptor-induced Toxicity; protein binding the intracellular domain of FAS-R, SEQ ID NO:2 (protein)
chain: VNQAPECRFGGGILGPLGKRRDLARASEPRTEGARRAGPQPRPLADPAMDPFLVLLHSVSSSLSSSELTELKFLCLGRVVKRKLERVQSGLDLFSMLLEQNDLEPGHTELLRELLASLRRHDLLRRVDDFEAGAAAGAAPGEEDLCAAFNVICDNVGKDWRRLARQLKVSDTKIDSIEDRYPRNLTERVRESLRIWKNTEKENATVAHLVGALRSCQMNLVADLVQEVQQARDLQNRSGAMSPMSWNSDASTSEAS
binding to mouse Fas-IC in two-hybrid test: binds
